Reference: the supplement of paper PMC5998384

Tests used:
HeLa Kyoto [1] = assay: solubility change mitosis vs G1/S (difference of NP-40 vs SDS log2 ratios) (log2 ratio difference); higher = more soluble in mitosis
HeLa Kyoto [2] = assay: thermal stability score vs G1/S (z-score of summed log2 fold changes over temperatures); higher = more thermally stable than in G1/S
HeLa Kyoto [3] = assay: solubility in G1/S (NP-40 vs SDS abundance) (log2 ratio); higher = more soluble; conditions: cell cycle stage: G1/S
HeLa Kyoto [4] = assay: melting temperature (median over replicates), in situ; higher = more thermally stable
[5] = cell cycle stage: early G1 (4.5 h after nocodazole release)
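Throughout, for melting temperature (median over replicates), in situ: HeLa Kyoto cells synchronized by double thymidine or nocodazole block, proteins quantified by TMT10plex mass spectrometry, three independent biological replicates.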
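Throughout, for solubility change mitosis vs G1/S (difference of NP-40 vs SDS log2 ratios): synchronized HeLa Kyoto cells (double thymidine block for G1/S, nocodazole release for mitosis), protein amounts in NP-40 versus SDS lysates quantified by mass spectrometry, three biological replicates.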
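Throughout, for solubility in G1/S (NP-40 vs SDS abundance): HeLa Kyoto cells arrested at G1/S by double thymidine block, proteins quantified by TMT10plex mass spectrometry in mild NP-40 versus SDS extracts, three biological replicates.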
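Throughout, for thermal stability score vs G1/S (z-score of summed log2 fold changes over temperatures): synchronized HeLa Kyoto cells, proteins quantified by TMT10plex mass spectrometry, three biological replicates, mitosis taken 0.5 h after nocodazole release, G1/S directly after double thymidine block.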

| Substance | solubility change mitosis (log2) (HeLa Kyoto [1]) | thermal stability score (HeLa Kyoto [2]; [5]) | thermal stability score (HeLa Kyoto [2]; cell cycle stage: mitosis) | solubility in G1/S (log2) (HeLa Kyoto [3]) | melting temperature (HeLa Kyoto [4]; cell cycle stage: G1/S) [°C] | melting temperature (HeLa Kyoto [4]; cell cycle stage: mitosis) [°C] |
| --- | --- | --- | --- | --- | --- | --- |
| MEKFGMNFGGGPSKKDLLETIETQKKQLLQYQARLKDVVRAYKSLLKEKEALEASIKVLSVSHEADVGLAGVQLPGLTFPDSVDDRCSTHSEDSTGTATSLDTAASLTSTKGEFGVEDDRPARGPPPPKSEEASWSESGVSSSSGDGPFAGGEVDKRLHQLKTQLATLTSSLATVTQEKSRMEASYLADKKKMKQDLEDASNKAEEERARLEGELKGLQEQIAETKARLITQQHDRAQEQSDHALMLRELQKLLQEERTQRQDLELRLEETREALAGRAYAAEQMEGFELQTKQLTREVEELKSELQAIRDEKNQPDPRLQELQEEAARLKSHFQAQLQQEMRKTALAEDQLRQQSQVEEQRVAALENQISEVSELLGTYEKAKQKDQLAIQKLKERILQLDLENKTLALAASSRSPLDSHGEESSLDVNVLKDKMEKLKRLLQVAARKSQVTLDVEKLCDLEIMPSSEAADGEKATALYYQQELKQLKEEFERYKMRAQVVLKSKNTKDGNLGKELEAAQEQLAELKEKYISLRLSCEELEHQHQQEADDWKQELARLQQLHRQELERCQLDFRDRTLKLEEELHKQRDRALAVLTEKDLELEQLRSVALASGLPGRRSPVGGGGPGDPADTSSSDSLTQALQLAAANEPTFFLYAEQLARKEVEITSLRKQKHRLEVEVHQLQDRLLEEGERHREEVAALQSHIEKNIRDQSREGANLEYLKNIIYRFLTLPDSLGRQQTLTAILTILHFSPEEKQVIMRLPTSASWWPSGKR [GCC1] | -0.114 | -0.43 | 0.117 | 0.527 | 48.7 | 51.5 |
| MAAASVTPPGSLELLQPGFSKTLLGTKLEAKYLCSACRNVLRRPFQAQCGHRYCSFCLASILSSGPQNCAACVHEGIYEEGISILESSSAFPDNAARREVESLPAVCPSDGCTWKGTLKEYESCHEGRCPLMLTECPACKGLVRLGEKERHLEHECPERSLSCRHCRAPCCGADVKAHHEVCPKFPLTCDGCGKKKIPREKFQDHVKTCGKCRVPCRFHAIGCLETVEGEKQQEHEVQWLREHLAMLLSSVLEAKPLLGDQSHAGSELLQRCESLEKKTATFENIVCVLNREVERVAMTAEACSRQHRLDQDKIEALSSKVQQLERSIGLKDLAMADLEQKVLEMEASTYDGVFIWKISDFARKRQEAVAGRIPAIFSPAFYTSRYGYKMCLRIYLNGDGTGRGTHLSLFFVVMKGPNDALLRWPFNQKVTLMLLDQNNREHVIDAFRPDVTSSSFQRPVNDMNIASGCPLFCPVSKMEAKNSYVRDDAIFIKAIVDLTGL [TRAF2] | -0.084 | -0.77 | -1.17 | 0.0627 | 52.5 | 52.2 |
| MAAARPSLGRVLPGSSVLFLCDMQEKFRHNIAYFPQIVSVAARMLKVARLLEVPVMLTEQYPQGLGPTVPELGTEGLRPLAKTCFSMVPALQQELDSRPQLRSVLLCGIEAQACILNTTLDLLDRGLQVHVVVDACSSRSQVDRLVALARMRQSGAFLSTSEGLILQLVGDAVHPQFKEIQKLIKEPAPDSGLLGLFQGQNSLLH [ISOC2] | -0.173 | 1.82 | -1.19 | 0.188 | 55.1 | 54.9 |
| MDESALLDLLECPVCLERLDASAKVLPCQHTFCKRCLLGIVGSRNELRCPECRTLVGSGVEELPSNILLVRLLDGIKQRPWKPGPGGGSGTNCTNALRSQSSTVANCSSKDLQSSQGGQQPRVQSWSPPVRGIPQLPCAKALYNYEGKEPGDLKFSKGDIIILRRQVDENWYHGEVNGIHGFFPTNFVQIIKPLPQPPPQCKALYDFEVKDKEADKDCLPFAKDDVLTVIRRVDENWAEGMLADKIGIFPISYVEFNSAAKQLIEWDKPPVPGVDAGECSSAAAQSSTAPKHSDTKKNTKKRHSFTSLTMANKSSQASQNRHSMEISPPVLISSSNPTAAARISELSGLSCSAPSQVHISTTGLIVTPPPSSPVTTGPSFTFPSDVPYQAALGTLNPPLPPPPLLAATVLASTPPGATAAAAAAGMGPRPMAGSTDQIAHLRPQTRPSVYVAIYPYTPRKEDELELRKGEMFLVFERCQDGWFKGTSMHTSKIGVFPGNYVAPVTRAVTNASQAKVPMSTAGQTSRGVTMVSPSTAGGPAQKLQGNGVAGSPSVVPAAVVSAAHIQTSPQAKVLLHMTGQMTVNQARNAVRTVAAHNQERPTAAVTPIQVQNAAGLSPASVGLSHHSLASPQPAPLMPGSATHTAAISISRASAPLACAAAAPLTSPSITSASLEAEPSGRIVTVLPGLPTSPDSASSACGNSSATKPDKDSKKEKKGLLKLLSGASTKRKPRVSPPASPTLEVELGSAELPLQGAVGPELPPGGGHGRAGSCPVDGDGPVTTAVAGAALAQDAFHRKASSLDSAVPIAPPPRQACSSLGPVLNESRPVVCERHRVVVSYPPQSEAELELKEGDIVFVHKKREDGWFKGTLQRNGKTGLFPGSFVENI [SH3RF1] | -0.13 | 0.34 | 1.14 | 0.517 | 49.3 | 51 |
| MAKIAKTHEDIEAQIREIQGKKAALDEAQGVGLDSTGYYDQEIYGGSDSRFAGYVTSIAATELEDDDDDYSSSTSLLGQKKPGYHAPVALLNDIPQSTEQYDPFAEHRPPKIADREDEYKKHRRTMIISPERLDPFADGGKTPDPKMNARTYMDVMREQHLTKEEREIRQQLAEKAKAGELKVVNGAAASQPPSKRKRRWDQTADQTPGATPKKLSSWDQAETPGHTPSLRWDETPGRAKGSETPGATPGSKIWDPTPSHTPAGAATPGRGDTPGHATPGHGGATSSARKNRWDETPKTERDTPGHGSGWAETPRTDRGGDSIGETPTPGASKRKSRWDETPASQMGGSTPVLTPGKTPIGTPAMNMATPTPGHIMSMTPEQLQAWRWEREIDERNRPLSDEELDAMFPEGYKVLPPPAGYVPIRTPARKLTATPTPLGGMTGFHMQTEDRTMKSVNDQPSGNLPFLKPDDIQYFDKLLVDVDESTLSPEEQKERKIMKLLLKIKNGTPPMRKAALRQITDKAREFGAGPLFNQILPLLMSPTLEDQERHLLVKVIDRILYKLDDLVRPYVHKILVVIEPLLIDEDYYARVEGREIISNLAKAAGLATMISTMRPDIDNMDEYVRNTTARAFAVVASALGIPSLLPFLKAVCKSKKSWQARHTGIKIVQQIAILMGCAILPHLRSLVEIIEHGLVDEQQKVRTISALAIAALAEAATPYGIESFDSVLKPLWKGIRQHRGKGLAAFLKAIGYLIPLMDAEYANYYTREVMLILIREFQSPDEEMKKIVLKVVKQCCGTDGVEANYIKTEILPPFFKHFWQHRMALDRRNYRQLVDTTVELANKVGAAEIISRIVDDLKDEAEQYRKMVMETIEKIMGNLGAADIDHKLEEQLIDGILYAFQEQTTEDSVMLNGFGTVVNALGKRVKPYLPQICGTVLWRLNNKSAKVRQQAADLISRTAVVMKTCQEEKLMGHLGVVLYEYLGEEYPEVLGSILGALKAIVNVIGMHKMTPPIKDLLPRLTPILKNRHEKVQENCIDLVGRIADRGAEYVSAREWMRICFELLELLKAHKKAIRRATVNTFGYIAKAIGPHDVLATLLNNLKVQERQNRVCTTVAIAIVAETCSPFTVLPALMNEYRVPELNVQNGVLKSLSFLFEYIGEMGKDYIYAVTPLLEDALMDRDLVHRQTASAVVQHMSLGVYGFGCEDSLNHLLNYVWPNVFETSPHVIQAVMGALEGLRVAIGPCRMLQYCLQGLFHPARKVRDVYWKIYNSIYIGSQDALIAHYPRIYNDDKNTYIRYELDYIL [SF3B1] | 0.299 | -1.78 | -0.315 | -0.486 | 50.9 | 50.4 |
| MAAPQDVHVRICNQEIVKFDLEVKALIQDIRDCSGPLSALTELNTKVKEKFQQLRHRIQDLEQLAKEQDKESEKQLLLQEVENHKKQMLSNQASWRKANLTCKIAIDNLEKAELLQGGDLLRQRKTTKESLAQTSSTITESLMGISRMMAQQVQQSEEAMQSLVTSSRTILDANEEFKSMSGTIQLGRKLITKYNRRELTDKLLIFLALALFLATVLYIVKKRLFPFL [BNIP1] | -0.0998 | 1.09 | 0.444 | -0.186 | 52.3 | 51.7 |
| MPTTIEREFEELDTQRRWQPLYLEIRNESHDYPHRVAKFPENRNRNRYRDVSPYDHSRVKLQNAENDYINASLVDIEEAQRSYILTQGPLPNTCCHFWLMVWQQKTKAVVMLNRIVEKESVKCAQYWPTDDQEMLFKETGFSVKLLSEDVKSYYTVHLLQLENINSGETRTISHFHYTTWPDFGVPESPASFLNFLFKVRESGSLNPDHGPAVIHCSAGIGRSGTFSLVDTCLVLMEKGDDINIKQVLLNMRKYRMGLIQTPDQLRFSYMAIIEGAKCIKGDSSIQKRWKELSKEDLSPAFDHSPNKIMTEKYNGNRIGLEEEKLTGDRCTGLSSKMQDTMEENSESALRKRIREDRKATTAQKVQQMKQRLNENERKRKRWLYWQPILTKMGFMSVILVGAFVGWTLFFQQNAL [PTPN2] | -0.142 | 0.409 | 1.35 | 0.0769 | 49 | 49.2 |
| NFIA | 0.0442 | 0.325 | 1.68 | -0.00202 | 59 | 62.1 |
| MYPESTTGSPARLSLRQTGSPGMIYSTRYGSPKRQLQFYRNLGKSGLRVSCLGLGTWVTFGGQITDEMAEQLMTLAYDNGINLFDTAEVYAAGKAEVVLGNIIKKKGWRRSSLVITTKIFWGGKAETERGLSRKHIIEGLKASLERLQLEYVDVVFANRPDPNTPMEETVRAMTHVINQGMAMYWGTSRWSSMEIMEAYSVARQFNLTPPICEQAEYHMFQREKVEVQLPELFHKIGVGAMTWSPLACGIVSGKYDSGIPPYSRASLKGYQWLKDKILSEEGRRQQAKLKELQAIAERLGCTLPQLAIAWCLRNEGVSSVLLGASNADQLMENIGAIQVLPKLSSSIIHEIDSILGNKPYSKKDYRS [KCNAB2] | -0.201 | -0.252 | 3.11 | 0.117 | 60.3 | 58.8 |
| MAAFAVEPQGPALGSEPMMLGSPTSPKPGVNAQFLPGFLMGDLPAPVTPQPRSISGPSVGVMEMRSPLLAGGSPPQPVVPAHKDKSGAPPVRSIYDDISSPGLGSTPLTSRRQPNISVMQSPLVGVTSTPGTGQSMFSPASIGQPRKTTLSPAQLDPFYTQGDSLTSEDHLDDSWVTVFGFPQASASYILLQFAQYGNILKHVMSNTGNWMHIRYQSKLQARKALSKDGRIFGESIMIGVKPCIDKSVMESSDRCALSSPSLAFTPPIKTLGTPTQPGSTPRISTMRPLATAYKASTSDYQVISDRQTPKKDESLVSKAMEYMFGW [NUP35] | -0.0493 | -2.22 | -0.679 | 0.209 | 52.3 | 52 |
| MADLEAVLADVSYLMAMEKSKATPAARASKKILLPEPSIRSVMQKYLEDRGEVTFEKIFSQKLGYLLFRDFCLNHLEEARPLVEFYEEIKKYEKLETEEERVARSREIFDSYIMKELLACSHPFSKSATEHVQGHLGKKQVPPDLFQPYIEEICQNLRGDVFQKFIESDKFTRFCQWKNVELNIHLTMNDFSVHRIIGRGGFGEVYGCRKADTGKMYAMKCLDKKRIKMKQGETLALNERIMLSLVSTGDCPFIVCMSYAFHTPDKLSFILDLMNGGDLHYHLSQHGVFSEADMRFYAAEIILGLEHMHNRFVVYRDLKPANILLDEHGHVRISDLGLACDFSKKKPHASVGTHGYMAPEVLQKGVAYDSSADWFSLGCMLFKLLRGHSPFRQHKTKDKHEIDRMTLTMAVELPDSFSPELRSLLEGLLQRDVNRRLGCLGRGAQEVKESPFFRSLDWQMVFLQKYPPPLIPPRGEVNAADAFDIGSFDEEDTKGIKLLDSDQELYRNFPLTISERWQQEVAETVFDTINAETDRLEARKKAKNKQLGHEEDYALGKDCIMHGYMSKMGNPFLTQWQRRYFYLFPNRLEWRGEGEAPQSLLTMEEIQSVEETQIKERKCLLLKIRGGKQFILQCDSDPELVQWKKELRDAYREAQQLVQRVPKMKNKPRSPVVELSKVPLVQRGSANGL [ADRBK1] | -0.0655 | 1.35 | 0.436 | -0.107 | 51.6 | 51.4 |
